The EC50 is the concentration at which the effect is half-maximal.

Here are results for 27 molecules from patent US20260071002A1 (Hoffmann-La Roche, published 2026).

T1: human CEACAM5 (human, UniProt P06731 35-685)
T1 construct: whole, on cells; Target on MKN-45 (DSMZ ACC409) and LS180 (ATCC CL-187) cells; also called carcinoembryonic antigen-related cell adhesion molecule 5; CD66e
T1 sequence (looked up): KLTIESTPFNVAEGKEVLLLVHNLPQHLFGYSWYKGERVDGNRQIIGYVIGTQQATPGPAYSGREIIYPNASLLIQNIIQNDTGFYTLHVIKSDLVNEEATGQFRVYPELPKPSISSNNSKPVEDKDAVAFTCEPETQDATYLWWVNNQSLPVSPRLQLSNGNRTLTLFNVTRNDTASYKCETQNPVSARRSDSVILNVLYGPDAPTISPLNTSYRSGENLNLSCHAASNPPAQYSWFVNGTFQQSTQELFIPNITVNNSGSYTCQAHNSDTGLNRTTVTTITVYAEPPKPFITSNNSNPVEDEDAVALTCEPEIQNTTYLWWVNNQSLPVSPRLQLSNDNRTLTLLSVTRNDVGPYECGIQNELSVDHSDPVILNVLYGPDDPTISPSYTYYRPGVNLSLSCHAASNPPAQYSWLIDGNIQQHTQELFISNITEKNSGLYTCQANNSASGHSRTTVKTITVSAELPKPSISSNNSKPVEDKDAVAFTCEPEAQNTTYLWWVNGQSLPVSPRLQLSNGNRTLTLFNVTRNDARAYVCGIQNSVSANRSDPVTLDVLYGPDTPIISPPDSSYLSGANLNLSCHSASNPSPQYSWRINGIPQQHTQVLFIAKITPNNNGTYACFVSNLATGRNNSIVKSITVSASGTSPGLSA

B1: T84.66-LCHA (P1AH2338) (antibody, V domains shown)
VH: QVQLVQSGAEVKKPGSSVKVSCKASGFNIKDTYMHWVRQAPGQGLEWMGRIDPANGNSKYVPKFQGRVTITADTSTSTAYMELSSLRSEDTAVYYCAPFGYYVSDYAMAYWGQGTLVTVSS
VL: EIVLTQSPATLSLSPGERATLSCRAGESVDIFGVGFLHWYQQKPGQAPRLLIYRASNRATGIPARFSGSGSGTDFTLTISSLEPEDFAVYYCQQTNEDPYTFGQGTKLEIK
notes: also called humanized variant 1
B2: P1AH2369 (antibody, V domains shown)
VH: B1 VH
VL: B1 VL with V34N, G35S
B3: P1AH2349 (antibody, human IgG1, V domains shown)
VH: EVQLVESGGGLVQPGGSLRLSCAASGFNIKDTYMHWVRQAPGKGLEWVGRIDPANGNSKYADSVKGRFTISADTSKNTAYLQMNSLRAEDTAVYYCAPFGYYVSDYAMAYWGQGTTVTVSS
VL: B1 VL
notes: also called rehumanized improved expression variant
B4: P1AH2368 (antibody, V domains shown)
VH: B1 VH
VL: B1 VL with I31S, F32Y
B5: P1AH2359 (antibody, human IgG1, name in Kabat numbering, V domains shown)
VH: B1 VH with E82Q
VL: B1 VL
B6: P1AH2351 (antibody, human IgG1, name in Kabat numbering, V domains shown)
VH: B1 VH with P98A
VL: B1 VL
notes: Kabat positions
B7: P1AH2361 (antibody, human IgG1, name in Kabat numbering, V domains shown)
VH: B1 VH with K30T
VL: B1 VL
B8: P1AH2364 (antibody, human IgG1, name in Kabat numbering, V domains shown)
VH: B1 VH
VL: B1 VL with A55G
B9: P1AH2373 (antibody, human IgG1, name in Kabat numbering, V domains shown)
VH: B1 VH
VL: B1 VL with D98N
B10: P1AH2370 (antibody, human IgG1, name in Kabat numbering, V domains shown)
VH: B1 VH
VL: B1 VL with D30S
B11: P1AH2350 (antibody, name in Kabat numbering, V domains shown)
VH: B1 VH with P98V
VL: B1 VL
B12: P1AH2366 (antibody, human IgG1, name in Kabat numbering, V domains shown)
VH: B1 VH
VL: B1 VL with F32Y
notes: Kabat positions
B13: P1AH2357 (antibody, name in Kabat numbering, V domains shown)
VH: B1 VH with D31S
VL: B1 VL
B14: P1AH2352 (antibody, human IgG1, name in Kabat numbering, V domains shown)
VH: B1 VH with P98T
VL: B1 VL
notes: Kabat positions
B15: P1AH2354 (antibody, human IgG1, name in Kabat numbering, V domains shown)
VH: B1 VH with P98S
VL: B1 VL
notes: Kabat positions
B16: P1AI5032 (antibody, human IgG1, name in Kabat numbering, V domains shown)
VH: B3 VH
VL: B1 VL with I31H, A55G
notes: Double mutant of T84.66-LCHA VL
B17: P1AI5024 (antibody, human IgG1, name in Kabat numbering, V domains shown)
VH: B3 VH
VL: B1 VL with A55G, Q93G, N96Y
B18: P1AI5025 (antibody, human IgG1, name in Kabat numbering, V domains shown)
VH: B3 VH
VL: B1 VL with A55G, Q93G, N96S
B19: P1AI5029 (antibody, human IgG1, name in Kabat numbering, V domains shown)
VH: B3 VH
VL: B1 VL with A55G, Q93G, N96K
B20: P1AI5026 (antibody, human IgG1, name in Kabat numbering, V domains shown)
VH: B3 VH
VL: B1 VL with A55G, Q93G, N96T
B21: P1AI5027 (antibody, human IgG1, name in Kabat numbering, V domains shown)
VH: B3 VH
VL: B1 VL with A55G, Q93G, N96Q
B22: P1AI5028 (antibody, human IgG1, name in Kabat numbering, V domains shown)
VH: B3 VH
VL: B1 VL with A55G, Q93G, N96H
B23: P1AI5013 (antibody, human IgG1, V domains shown)
VH: B3 VH
VL: B1 VL with I31H
B24: P1AI5021 (antibody, human IgG1, name in Kabat numbering, V domains shown)
VH: B3 VH
VL: B1 VL with A55G, Q93G, D98P
B25: P1AI5023 (antibody, human IgG1, name in Kabat numbering, V domains shown)
VH: B3 VH
VL: B1 VL with A55G, Q93G, D98H
B26: P1AI5019 (antibody, human IgG1, name in Kabat numbering, V domains shown)
VH: B3 VH
VL: B1 VL with A55G, Q93G, P99Y
B27: P1AI5030 (antibody, human IgG1, name in Kabat numbering, V domains shown)
VH: B3 VH
VL: B1 VL with A55G, V89Y, Q93G

Substitutions are numbered along the chain they refer to.

In one test the target is T1, human CEACAM5. Description: FACS on MKN-45 cells expressing human CEACAM5. On the procedure: The cellular binding assay was performed as follows.
(§1) 10 μl of a 1×10⁴ MKN-45 (DSMZ ACC409) cell suspension in assay buffer was seeded in all Wells of a 384 well polypropylene plate (Weidmann #23490-101). Then 10 μl of antibodies diluted in assay buffer (double concentrated), at a start concentration of 100 μg/ml, serially diluted 1:4 were added to the plate. After 90 minutes incubation at 4° C., 60 μl assay buffer was added followed by a centrifuge step (330×g, 5 min) and an aspirating step (BioTek washer 405H) where 60 μl of supernatant were discarded. 20 μl of detection antibody (Alpaca anti rabbit IgG Chromotek #srbAF647-1) diluted in assay buffer (double concentrated) to a final concentration of 0.5 μg/ml was added to all Wells followed by 1 hour incubation time at room temperature. The cells were then subjected to two washing steps with 40 μl and 60 μl assay buffer as described above and then resuspended in 20 μl assay buffer. Cell binding was measured on an iQue Screener Plus high throughput FACS device from Sartorius/Intellicyt.
B1 registered an EC50 of 5.3 nM.

On to B2, for which the EC50 stood at 5.5 nM.

Take B3: the EC50 came to 7.2 nM.

On to B4, for which the response was half-maximal at 2.5 nM (EC50).

The molecule B5 gave an EC50 of 12.9 nM.

As for B6, the midpoint of the response, the EC50, lay at 39.1 nM.

B7 had a half-maximal effective concentration (EC50) of 21.9 nM.

Molecule B8 registered an EC50 of 1.9 nM.

B9 returned an EC50 of 2.5 nM.

The molecule B10 displayed an EC50 of 3.1 nM.

In the case of B11, the EC50 stood at 30.1 nM.

For the molecule B12, the EC50 is 2.7 nM.

Molecule B13 had an EC50 of 2.3 nM.

B14 gave an EC50 of 21.9 nM.

Regarding B15, it took 20.4 nM to reach a half-maximal effect (EC50).

A further test concerns the target T1, human CEACAM5. In words: FACS on MKN-45 cells expressing human CEACAM5. The source holds these as a separate data set. As for the experimental part:
as §1
As to B1, the response was half-maximal at 0.989 µg/mL (EC50).

On to B3, for which the EC50 is 1.11 µg/mL.

In turn, B16 yielded an EC50 of 1.53 µg/mL.

Turning to B17, the EC50 stood at 11.5 µg/mL.

The molecule B18 gave an EC50 of 2.44 µg/mL.

Turning to B19, a half-maximal effect (EC50) was put at 1.92 µg/mL.

Take B20: the EC50 is 1.83 µg/mL.

With B21, the EC50 is 25.1 µg/mL.

For the molecule B22, a half-maximal effect (EC50) was put at 7.51 µg/mL.

In the case of B23, the EC50 was determined as 0.685 µg/mL.

B24 came in with an EC50 of 1.62 µg/mL.

On to B25, for which a half-maximal response (EC50) required 7.21 µg/mL.

B26 registered an EC50 of 2.49 µg/mL.

Molecule B27 had an EC50 of 11.2 µg/mL.
